From paper PMC3500560 (The Journal of neuroscience : the official journal of the …, 2011)

B1: His6-tagged SYD-2LH1 (domain or fragment)
chain: not shown
B2: MBP-LH1 fusion protein (domain or fragment)
chain: not shown

Legend:
[1] = target: the molecule itself; test: cross-linking
[2] = target: the molecule itself; test: SEC-MALS

Row | Protein | stoichiometry N [1] | stoichiometry N [2]
1 | B1 | 2 | –
2 | B2 | – | 2
